For experiment [1], the target named is T1, integrin β1 (OPN receptor subunit) of mouse osteoblasts (mouse, UniProt P09055 21-798).
T1 construct: Only the subunit is named; also called β1 integrin
As to the kind of experiment: co-immunoprecipitation from mouse osteoblast lysates, Western blot. The text has this: (§1) Then, was examined whether the interaction of OPN with the receptor is influenced by PTPμ deficiency. […] In contrast, levels of CD44 in OPN immunoprecipitates were similar in WT and PTPμ^{-/-} osteoblasts.
In general terms: A western blot detects proteins with antibodies after separation by electrophoresis.

In experiment [2] the target is T2, integrin α5 (OPN receptor subunit) of mouse osteoblasts (mouse, UniProt P11688 45-1053).
T2 construct: Only the subunit is named; also called α5 integrin
Described as above.
Source text: as §1

T2 sequence (P11688 45-1053 limits assumed, chain 1 of 2): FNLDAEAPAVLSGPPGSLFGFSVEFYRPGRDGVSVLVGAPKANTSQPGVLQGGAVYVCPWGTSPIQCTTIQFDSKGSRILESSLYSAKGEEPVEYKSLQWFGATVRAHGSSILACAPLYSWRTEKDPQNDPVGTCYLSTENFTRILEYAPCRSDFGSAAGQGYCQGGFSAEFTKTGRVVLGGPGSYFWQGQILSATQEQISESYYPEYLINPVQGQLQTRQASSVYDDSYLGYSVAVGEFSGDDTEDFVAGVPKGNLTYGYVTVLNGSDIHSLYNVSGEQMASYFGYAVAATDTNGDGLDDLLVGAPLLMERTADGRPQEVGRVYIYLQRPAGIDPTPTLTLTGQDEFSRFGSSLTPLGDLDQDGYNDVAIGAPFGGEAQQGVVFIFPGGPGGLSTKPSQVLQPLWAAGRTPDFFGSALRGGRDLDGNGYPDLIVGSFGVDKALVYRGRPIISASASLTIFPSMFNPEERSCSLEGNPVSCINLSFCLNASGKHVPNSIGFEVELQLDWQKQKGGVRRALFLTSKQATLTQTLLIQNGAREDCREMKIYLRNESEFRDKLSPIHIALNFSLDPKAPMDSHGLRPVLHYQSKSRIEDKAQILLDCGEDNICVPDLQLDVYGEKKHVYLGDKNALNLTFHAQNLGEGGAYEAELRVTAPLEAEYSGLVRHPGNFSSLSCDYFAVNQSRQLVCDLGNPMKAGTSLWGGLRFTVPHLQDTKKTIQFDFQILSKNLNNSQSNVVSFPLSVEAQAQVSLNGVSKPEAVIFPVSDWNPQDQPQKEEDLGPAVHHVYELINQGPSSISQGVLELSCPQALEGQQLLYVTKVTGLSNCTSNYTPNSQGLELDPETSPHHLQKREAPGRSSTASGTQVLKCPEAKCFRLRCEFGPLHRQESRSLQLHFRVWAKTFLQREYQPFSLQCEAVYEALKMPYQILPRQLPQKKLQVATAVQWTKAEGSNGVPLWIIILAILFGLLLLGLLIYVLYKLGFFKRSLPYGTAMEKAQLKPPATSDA
T2 sequence (chain, as listed by the source limits assumed, chain 2 of 2): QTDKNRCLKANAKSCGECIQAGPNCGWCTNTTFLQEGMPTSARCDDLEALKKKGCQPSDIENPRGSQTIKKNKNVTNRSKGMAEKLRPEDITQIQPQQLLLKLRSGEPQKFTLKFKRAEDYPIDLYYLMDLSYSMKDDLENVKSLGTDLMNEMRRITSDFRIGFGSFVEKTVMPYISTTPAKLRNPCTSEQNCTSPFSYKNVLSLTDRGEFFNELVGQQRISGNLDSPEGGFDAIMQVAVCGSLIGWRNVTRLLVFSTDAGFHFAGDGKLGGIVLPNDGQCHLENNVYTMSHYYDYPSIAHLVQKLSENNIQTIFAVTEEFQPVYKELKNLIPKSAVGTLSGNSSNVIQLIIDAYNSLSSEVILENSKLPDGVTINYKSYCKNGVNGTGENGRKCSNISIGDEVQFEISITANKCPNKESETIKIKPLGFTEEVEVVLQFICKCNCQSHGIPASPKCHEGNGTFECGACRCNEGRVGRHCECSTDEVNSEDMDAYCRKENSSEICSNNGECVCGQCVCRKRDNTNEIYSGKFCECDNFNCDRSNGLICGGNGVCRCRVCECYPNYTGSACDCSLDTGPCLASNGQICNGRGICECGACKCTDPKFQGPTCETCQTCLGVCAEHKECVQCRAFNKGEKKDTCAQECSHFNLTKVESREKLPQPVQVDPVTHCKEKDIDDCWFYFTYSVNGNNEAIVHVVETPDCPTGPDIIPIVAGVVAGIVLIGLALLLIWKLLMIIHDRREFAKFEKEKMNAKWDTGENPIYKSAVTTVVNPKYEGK
T1 sequence (chain, as listed by the source limits assumed, chain 1 of 2): as the sequence (P11688 45-1053 limits assumed, chain 1 of 2) above
T1 sequence (P09055 21-798 limits assumed, chain 2 of 2): as the sequence (chain, as listed by the source limits assumed, chain 2 of 2) above

B1: osteopontin (OPN), endogenous, in lysates of mouse osteoblasts (ligand)
chain: not shown
notes: Endogenous protein detected by Western blot with an anti-OPN antibody after immunoprecipitation of its receptors
As to B1, the “fold change of the level in the immunoprecipitates, PTPµ-/- osteoblasts against WT osteoblasts” value in experiment [1] and in experiment [2] was greater than 30 fold each time.

The values above are taken from patent publication US20160291016A1 (CHU SAINTE JUSTINE, published 2016).
